Test results taken from publication PMC11389940, “The chemokine receptor CCR8 is not a high-affinity receptor for the human chemokine CCL18” (PLOS ONE, 2024).

Columns and labels:
[1] = target: human CCR8 expressed on transfected cells (human, UniProt P51685 1-355); assay: cell-based or functional assay
[2] = target: CCR8 tagged at the N-terminus with a C-myc epitope tag and at the C-terminus with Renilla luciferase variant 8 (human, UniProt P51685 1-355); assay: cell-based or functional assay
[3] = target: T1, human CCR3 expressed on 4DE4 cells (human) (UniProt P51677)
T1 sequence: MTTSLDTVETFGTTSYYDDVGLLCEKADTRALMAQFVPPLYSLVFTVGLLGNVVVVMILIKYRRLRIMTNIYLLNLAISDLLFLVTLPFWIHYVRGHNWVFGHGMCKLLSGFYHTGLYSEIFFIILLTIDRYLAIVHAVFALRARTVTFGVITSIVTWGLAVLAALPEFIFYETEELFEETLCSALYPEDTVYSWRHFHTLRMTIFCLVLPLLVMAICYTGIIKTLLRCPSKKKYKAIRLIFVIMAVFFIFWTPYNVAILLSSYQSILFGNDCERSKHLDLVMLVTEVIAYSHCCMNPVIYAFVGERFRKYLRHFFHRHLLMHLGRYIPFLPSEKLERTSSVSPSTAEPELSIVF

[4] = target: T2, mCCR8 tagged at the N-terminus with a C-myc epitope tag and at the C-terminus with Renilla luciferase variant 8 (mouse) (UniProt P56484)
T2 sequence: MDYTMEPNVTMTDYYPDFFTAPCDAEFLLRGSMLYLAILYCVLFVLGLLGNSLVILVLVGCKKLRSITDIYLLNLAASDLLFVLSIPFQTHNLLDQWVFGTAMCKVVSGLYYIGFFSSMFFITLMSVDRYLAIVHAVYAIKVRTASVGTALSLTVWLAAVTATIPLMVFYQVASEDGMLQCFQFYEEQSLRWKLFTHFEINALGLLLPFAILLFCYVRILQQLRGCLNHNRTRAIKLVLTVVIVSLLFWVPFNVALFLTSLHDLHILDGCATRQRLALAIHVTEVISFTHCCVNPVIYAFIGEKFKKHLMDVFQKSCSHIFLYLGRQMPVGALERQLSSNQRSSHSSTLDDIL

[5] = target: T3, mouse CCR8 expressed on FlpInCHO cells (mouse) (UniProt P56484)
T3 sequence: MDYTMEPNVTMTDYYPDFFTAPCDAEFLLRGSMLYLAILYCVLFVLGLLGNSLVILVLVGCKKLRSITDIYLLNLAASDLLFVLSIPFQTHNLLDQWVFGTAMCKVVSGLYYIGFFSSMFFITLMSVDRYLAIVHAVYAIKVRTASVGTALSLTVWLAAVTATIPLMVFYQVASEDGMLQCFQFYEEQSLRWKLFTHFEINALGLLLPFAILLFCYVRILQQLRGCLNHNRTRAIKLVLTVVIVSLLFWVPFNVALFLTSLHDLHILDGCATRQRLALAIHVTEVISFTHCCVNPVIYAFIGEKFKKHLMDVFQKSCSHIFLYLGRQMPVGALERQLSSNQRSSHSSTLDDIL

Chain of human CCR8 expressed on transfected cells (P51685 whole entry): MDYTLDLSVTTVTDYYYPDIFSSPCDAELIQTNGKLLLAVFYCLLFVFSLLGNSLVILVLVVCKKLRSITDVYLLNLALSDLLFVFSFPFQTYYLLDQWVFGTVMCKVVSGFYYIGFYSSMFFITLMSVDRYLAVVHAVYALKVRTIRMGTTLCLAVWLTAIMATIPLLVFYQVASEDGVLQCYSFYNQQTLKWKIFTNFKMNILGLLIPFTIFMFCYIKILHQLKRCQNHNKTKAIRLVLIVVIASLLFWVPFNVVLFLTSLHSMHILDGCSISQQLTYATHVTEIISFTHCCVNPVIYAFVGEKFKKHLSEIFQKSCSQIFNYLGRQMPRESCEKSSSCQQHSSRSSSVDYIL
Chain of CCR8 tagged at the N-terminus with a C-myc epitope tag and at the C-terminus with Renilla luciferase variant 8 (P51685 whole entry, change not shown): as the sequence (P51685 whole entry) above

B1: CCL1 (ligand, human, UniProt P22362 24-96, looked up)
chain: KSMQVPFSRCCFSFAEQEIPLRAILCYRNTSSICSNEGLIFKLKRGKEACALDTVGWVQRHRKMLRHCPSKRK
- G protein activation (Gαi2; BRET of Gβγ with a GRK fragment) in FlpIn CHO cells stably expressing CCR8; EC50 [1]: 46 nM
- inhibition of forskolin-stimulated cAMP synthesis (CAMYEL biosensor) in FlpIn CHO cells stably expressing CCR8; EC50 [1]: 26 nM
- β-arrestin2 recruitment to CCR8 (BRET) in FlpIn CHO cells; EC50 of CCL1 [2]: 21 nM

B2: CCL18(1–69) (ligand)
chain: AQVGTNKELCCLVYTSWQIPQKFIVDYSETSPQCPKPGVILLTKRGRQICADPNKKWVQKYISDLKLNA
- inhibition by CCL18 of chemotaxis of 4DE4-CCR3 cells to 1 nM CCL11 (blocks CCL11 with CCR3); 50% inhibitory concentration [3]: < 50 nM

B3: murine CCL1 (ligand)
chain: KSMLTVSNSCCLNTLKKELPLKFIQCYRKMGSSCPDPPAVVFRLNKGRESCASTNKTWVQNHLKKVNPC
- β-arrestin2 recruitment to mCCR8 (BRET) in FlpIn CHO cells; EC50 of mCCL1 [4]: 24 nM
- G protein activation in FlpIn CHO cells stably expressing mCCR8; EC50 [5]: 11 nM
- cAMP inhibition in FlpIn CHO cells stably expressing mCCR8; EC50 [5]: 30 nM
